Source: PMC5339286, “A Novel Soybean ERF Transcription Factor, GmERF113, Increases Resistance to Phytophthora sojae Infection in Soybean”
Changes are numbered by the printed parent chain.

Target: GmERF113 (Glycine max (soybean) cv. Suinong 10, UniProt I1ML94 1-260)
Assay: EMSA; EMSA as described by Liu et al. (2006); buffer, salt, pH and temperature not stated
Conditions: protein: recombinant

Chain of GmERF113 (I1ML94 entry or part of it): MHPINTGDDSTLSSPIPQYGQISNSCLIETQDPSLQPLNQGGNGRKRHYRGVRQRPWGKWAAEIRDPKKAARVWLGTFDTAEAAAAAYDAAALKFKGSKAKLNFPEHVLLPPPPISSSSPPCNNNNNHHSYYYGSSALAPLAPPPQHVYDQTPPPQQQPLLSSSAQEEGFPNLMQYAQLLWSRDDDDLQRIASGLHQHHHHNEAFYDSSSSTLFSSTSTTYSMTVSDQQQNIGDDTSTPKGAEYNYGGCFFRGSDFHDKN

B1: GCC probe (GCC-box) (dsDNA)
DNA 1: ATCCATAAGAGCCGCCACTAAAATAAGACCGATCAA
DNA 2: TTGATCGGTCTTATTTTAGTGGCGGCTCTTATGGAT
B1: binds.

B2: mGCC probe (mutated GCC-box) (dsDNA)
DNA 1: B1 DNA 1 with G11T, G14T
DNA 2: B1 DNA 2 with C23A, C26A
B2: no binding.
